Common to all, as to assay: BLI, mAb on anti-human Fc probe, antigen in solution
(In general: Biolayer interferometry detects binding as a change in optical thickness at a sensor tip.)

Test [1] concerns the target T1, SARS-CoV-2 receptor binding domain (RBD) (SARS-CoV-2, UniProt P0DTC2 319-591).
For test [2], the target named is T1, SARS-CoV-2 receptor binding domain (RBD). This is another data set of the same source.
The target is the same in test [3]. The source holds these as a separate data set.
Test [4] shares this target. The source holds these as a separate data set.
Test [5] has the same target. This is another data set of the same source.
Test [6] shares this target. The source holds these as a separate data set.
For test [7] the target is unchanged. This is another data set of the same source.
Test [8] has the same target. This is another data set of the same source.
The target is the same in test [9]. The source holds these as a separate data set.
Test [10] shares this target. This is another data set of the same source.
For test [11] the target is unchanged. This is another data set of the same source.
The target is the same in test [12]. This is another data set of the same source.
For test [13] the target is unchanged. This is another data set of the same source.
Test [14] has the same target. This is another data set of the same source.
The target is the same in test [15]. The source holds these as a separate data set.
Test [16] has the same target. This is another data set of the same source.
The target is the same in test [17]. The source holds these as a separate data set.

Numbering of substitutions follows the chain as printed. Read-outs that look alike come from different tables or passages of the source.

Consider 17 molecules from US20230212266A1 (FRED HUTCHINSON CANCER CENTER, published 2023).

B1: CV2-26 (antibody, V domains shown)
VH: QVQLVESGGGVVQPGRSLRLSCAAAGFIFSSYAMNWVRQAPGKGLEWVAVISYDGSNKYYADSVKGRFTISRDNSKNTLNLQMNSLRAEDTAVYYCARGNGYIIIDYWGQGTLVTVSS
VL: QLVLTQSPSASASLGASVKLTCTLSSGHSSYAIAWHQQQPEKGPRYLMKFNSDGTHSKGDGIPDRFSGSSSGAERSLTISSLQSEDEADYYCQTWGTGGVFGGGTKLTVL
notes: expressed as IgG
For B1, in test [1], the binding result is recorded as “no binding”.

B2: CV2-39 (antibody, V domains shown)
VH: EVQLVESGGGLVQPGGSLRLSCSASGFTFSSYAMHWVRQAPGKGLEYVSGISSNGGSTYYADSVKGRITISRDNSKKTLYLQMSSLRAEDTAVYYCVKSSSRGYYWGQGTLVTVSS
VL: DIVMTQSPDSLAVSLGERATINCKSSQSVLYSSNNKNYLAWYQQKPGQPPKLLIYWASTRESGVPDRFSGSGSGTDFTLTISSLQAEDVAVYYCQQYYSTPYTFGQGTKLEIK
notes: expressed as IgG
B2: the binding result in [2] is recorded as “no binding”.

B3: CV2-32 (antibody, V domains shown)
VH: EVQLVESGGGLVQPGRSLRLSCTASGFTFGDYAMSWFRQAPGKGLEWVGFIRSKAYGGTTEYAASVKGRFTISRDDSKSIAYLQMNSLKTEDTAVYYCTMVWQQLHDAFDIWGQGTMVTVSS
VL: SYELTQPPSVSVSPGQTARITCSGDALPKQYAYWYQQKPGQAPVLVIYKDSERPSGIPERFSGSSSGTTVTLTISGVQAEDEADYYCQSADSSGTYSWVFGGGTKLTVL
notes: expressed as IgG
As to B3, the binding result in test [3] is recorded as “no binding”.

B4: CV2-29 (antibody, V domains shown)
VH: QVQLVESGGGVVQPGRSLRLSCAASGFTFSTYAMHWVRQAPGKGLEWVAVISYDGSNKYYADSVKGRFTISRDNSKNTLYLQMNSLRAEDTAVYYCARAYGGSYFYGMDVWGQGTTVTVSS
VL: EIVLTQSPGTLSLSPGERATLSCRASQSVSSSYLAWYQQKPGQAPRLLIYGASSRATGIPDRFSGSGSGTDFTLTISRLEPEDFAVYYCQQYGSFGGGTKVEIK
notes: expressed as IgG
B4: the binding result in test [4] is “no binding”.

B5: CV2-28 (antibody, V domains shown)
VH: QLQLQESGPGLVKPSETLSLTCTVSGGSVSSNAYYWGWIRQPPGKGLEWIGSVNYRGSTYYIPTLKSRITISVNTSKNQFSLKLTSVTAADTAVYYCARRGVALVTITYFDFWGQGALVTVSS
VL: QSVLTQPPSVSGAPGQRVTITCTGSSSNIGSGYDVHWYQQLPGTAPKLLIYGNTNRPSGVPDRFSGSKSGTSASLAITGLQAEDEAHYYCQSYDSSVVFGGGTKLTVL
notes: expressed as IgG
Consider B5, for which the binding result in test [5] was “no binding”.

B6: CV2-30 (antibody, V domains shown)
VH: QVQLVQSGAEVKKPGSSVKVSCKASGGTFSSYAITWVRQAPGQGLEWMGGIIPIFGTANYAQKFQGRVTITADESTNTAYMELSSLTSEDTAVYYCAKIGDYDSSGYYFDYWAQGTLVTVSS
VL: EIVLTQSPATLSLSPGERATLSCRASQSVSSFLAWYQQKPGQAPRLLIYDASNRATGIPARFSGSGSGTDFTLTISSLEPEDFAVYYCQQRSNWPPSITFGQGTRLEIK
notes: expressed as IgG
With B6, the binding result in test [6] is “no binding”.

B7: CV2-33 (antibody, V domains shown)
VH: QVQLVQSGAEVKKPGSSVKVSCKASGGTFSSYAISWVRQAPGQGLEWMGGIIPIFGTANYAQKFQGRVTITADESTSTAYMELSSLRSEDTAVYYCARISSYDSSGYSMDVWGQGTTVTVSS
VL: B6 VL with F32Y, S97R, I98V, Q102P, R105K, L106V, E107D
notes: expressed as IgG
Consider B7, for which the binding result in test [7] is listed as “no binding”.

B8: CV2-22 (antibody, V domains shown)
VH: QVQLVESGGGVVQPGRSLRLSCAASGFTFSSYGMHWVRQAPGKGLEWVAVISYDGSNKYYADSVKGRFTISRDNSKNTLYLQMNSLRAEDTALYYCASEIVSFIGSSEDYWGQGTLVTVSS
VL: SYELTQPPSVSVSPGQTARITCSGDALPKKYAYWYQQKSGQAPVLVIYEDSKRPSGIPERFSGSSSGTMATLTISGAQVEDEADYCCYSTDSSDNHRRVFGTGTKVTVL
notes: expressed as IgG
With B8, in test [8], the binding result is recorded as “no binding”.

B9: CV2-34 (antibody, V domains shown)
VH: QVQLVESGGGVVQPGRSLRLSCAASRFTFSTYAMHWVRQAPGKGLEWVTVISYDGDNKYYADSVKGRFTISRDNSKNTLYLQMNSLRTEDTAVYYCTRAGSGSYLSYFDYWGQGTLVTVSS
VL: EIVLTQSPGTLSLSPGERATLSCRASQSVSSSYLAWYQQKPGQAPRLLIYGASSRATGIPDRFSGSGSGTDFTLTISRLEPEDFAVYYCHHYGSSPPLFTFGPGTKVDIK
notes: expressed as IgG
With B9, in test [9], the binding result is listed as “no binding”.

B10: CV2-24 (antibody, V domains shown)
VH: EVQLVESGGGLVKPGGSLRLSCAASGFTFSSYSMNWVRQAPGKGLEWVSSISSTSNYIYYADSVKGRFTISRDNAKNSLYLQMNSLRAEDTAVYYCARVSPNYDFWSGYYPDAFDIWGQGTMVTVSS
VL: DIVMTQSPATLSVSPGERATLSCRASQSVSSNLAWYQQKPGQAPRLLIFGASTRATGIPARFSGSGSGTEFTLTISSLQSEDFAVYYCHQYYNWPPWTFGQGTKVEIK
notes: expressed as IgG
As to B10, in test [10], the binding result is given as “no binding”.

B11: CV2-25 (antibody, V domains shown)
VH: EVQLVQSGAEVKKPGESLRISCKGSGYSFTSYWISWVRQMPGKGLEWMGKIDPSDSYTNYSPSFQGHVTISADKSISTAYLQWSSLKASDTAMYYCARQFGGELLGWFDPWGQGTLVTVSS
VL: DIQMTQSPSSLSASVGDRVTITCRASQGISNYLAWYQQKPGKVPKLLIYAASTLQSGVPSRFSGSGSGTDFTLTISSLQPEDVATYYCQKYNSAPFTFGPGTKVDIK
notes: expressed as IgG
For B11, in test [11], the binding result is “no binding”.

B12: CV2-23 (antibody, V domains shown)
VH: QVQLVESGGGVVQPGRSLRLSCAASGFTFNSFAMHWVRQAPGKGLEWVAVISYDGNNKYYADSVKGRFTISRDNSKNTLYLQMNSLRAEDTAVYYCARDRSGGYSCFDYWGQGTLVTVSS
VL: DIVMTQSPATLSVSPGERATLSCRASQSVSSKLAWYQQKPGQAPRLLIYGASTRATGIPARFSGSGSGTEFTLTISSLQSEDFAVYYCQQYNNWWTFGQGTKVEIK
notes: expressed as IgG
B12: the binding result in [12] was “no binding”.

B13: CV2-27 (antibody, V domains shown)
VH: QLQLQESGPGLVKPSETLSLTCTVSGGSISSSSYYWGWIRQPPGKGLEFIGSIYYSGSTYYNPSLKSRVTISVDTSKNQFSLKLSSVTAADTAVYYCATQEVVLVRPYNYNGMDVWGQGTTVTVSS
VL: QSALTQPASVSGSPGQSITLSCTGTSSDVGGYNYVSWYQQHPGKAPKLMIYEVSNRPSGVSNRFSGSKSGNTASLTISGLQAEDEADYYCSSYTSISTLVFGTGTKVTVL
notes: expressed as IgG
In the case of B13, in [13], the binding result is recorded as “no binding”.

B14: CV9 (antibody, V domains shown)
VH: QLQLQESGPGLVKPSETLSLTCTVSGGSISSSSYYWGWIRQPPGKGLEWIGSIYYSGSTYYNPSLKSRVTISVDTSKNQFSLKLSSVTAADTAVYYCATHIVVVTATPNWYFDLWGRGTLVTVSS
VL: B13 VL with L20I, E52D, L99W, T103G, V107L
notes: expressed as IgG
Turning to B14, in test [14], the binding result is reported as “no binding”.

B15: CV2-38 (antibody, V domains shown)
VH: QVQLVQSGAEVKKPGSSVKVSCKASGGTFSSYAISWVRQAPGQGLEWMGGIIPIFGTANYAQKFQGRVTITADESTSTAYMELSSLRSEDTAVYYCASARFITMVRGVINIYYYGMDVWGQGTTVTVSS
VL: B13 VL with L20I, I96S, V100L, T103G, V107L, T108R, V109S, L110C
notes: expressed as IgG
For B15, in test [15], the binding result is “no binding”.

B16: CV2-35 (antibody, V domains shown)
VH: EVQLVESGGGLVQPGGSLRLSCAASGFTFSNCWMSWVRQAPGKGLEWVANIKQDGSEKYYVDSVKGRFTISRDNAKNSLYLQMNSLRAEDTAVYYCARMGNTAWYFDLWGRGTLVTVSS
VL: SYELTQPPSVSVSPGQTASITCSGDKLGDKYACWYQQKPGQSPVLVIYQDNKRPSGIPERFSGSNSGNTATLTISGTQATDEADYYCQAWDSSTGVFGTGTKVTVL
notes: expressed as IgG
Turning to B16, in [16], the binding result is recorded as “no binding”.

B17: CV2-37 (antibody, V domains shown)
VH: QVQLVQSGAEVKKPGASVKVSCRASGYTFTNFGISWVRQAPGLGLEWMGWISTYNGNTNYAQKLQGRVTMTTDTSTSTAYMELRSLRSDDTAVYYCARASGPYLLGLYWGQGTLVTVSS
VL: QSVLTQPPSVSGAPGQRVTISCTGSSSNIGAGYDVHWYQQLPGTAPKLLIYGNSNRPSGVPDRFSGSKSGTSASLAITGLQAEDEADYYCQSYDSSLSDVVFGGGTKLTVL
notes: expressed as IgG
Take B17: the binding result in test [17] is “no binding”.
